No end group written: not given here. *: point of attachment. TAMRA = 5-carboxytetramethylrhodamine, CN(C)c1ccc2c(-c3ccc(C(=O)*)cc3C(=O)[O-])c3ccc(=[N+](C)C)cc-3oc2c1
B1: BAKBH3, TAMRA-labelled 35-residue peptide (UniProt:Q16611, residues 64–98, P64A) (peptide, UniProt Q16611 64-98, looked up)
peptide: {TAMRA}-ALQPSSTMGQVGRQLAIIGDDINRRYDSEFQTMLQ
notes: source: synthetic peptide, bought: Biomatik
B2: BAK (UniProt:Q16611, residues 16–185, C166S) (domain or fragment, human, UniProt Q16611 16-185, looked up)
chain: EPALPSASEEQVAQDTEEVFRSYVFYRHQQEQEAEGVAAPADPEMVTLPLQPSSTMGQVGRQLAIIGDDINRRYDSEFQTMLQHLQPTAENAYEYFTKIATSLFESGINWGRVVALLGFGYRLALHVYQHGLTGFLGQVTRFVVDFMLHHSIARWIAQRGGWVAALNLGN
notes: human BAK, residues 16-185, without the short disordered N-terminal segment and the C-terminal transmembrane helix; cysteine mutated to serine; Monomeric in buffer, oligomeric in detergent; the same construct in all experiments; Theoretical mass 19217.64 Da; also called 'wild-type' BAK (no cysteines); source: E. coli BL21(DE3), purified (chitin resin, intein self-cleavage with DTT, SEC); not …
B3: BIDBH3, TAMRA-labelled 35-residue peptide (UniProt:P55957, residues 76–110) (peptide, UniProt P55957 76-110, looked up)
peptide: {TAMRA}-SESQEDIIRNIARHLAQVGDSMDRSIPPGLVNGLA
notes: as for B1
B4: PUMABH3, un-labeled, recombinant (UniProt:Q9BXH1, residues 125–161, M144A) (peptide, UniProt Q9BXH1 125-161, looked up)
peptide: GVRGEEEQWAREIGAQLRRAADDLNAQYERRRQEEQQ
notes: human PUMA BH3, residues 125-161; theoretical mass 4442.75 Da is printed; not shown: His6, N-terminal, cleaved; GB1, N-terminal, cleaved
B5: MCL-1 (UniProt:Q07820, residues 168–327, C286S) (domain or fragment, human)
chain: GSEEEEDELYRQSLEIISRYLREQATGAKDTKPMGRSGATSRKALETLRRVGDGVQRNHETAFQGMLRKLDIKNEDDVKSLSRVMIHVFSDGVTNWGRIVTLISFGAFVAKHLKTINQESSIEPLAESITDVLVRTKRDWLVKQRGWDGFVEFFHVEDLEGG
notes: extra GS left at the N-terminus after removal of the tag with thrombin; human MCL-1, residues 168-327, without the disordered N-terminus and the C-terminal transmembrane region; Theoretical mass 18409.74 Da; source: E. coli C41(DE3), purified (Ni-NTA, thrombin cleavage, cation exchange, SEC); not shown: His6, N-terminal, cleaved

Tests used:
Conditions in all cases: both partners purified
[1] = biological target: B5; test: stopped-flow association kinetics + other: out-competition dissociation kinetics; affinities of BH3 peptides for MCL-1 in buffer without detergent (Table 1); how Kd was obtained is not told in the text shown
[2] = biological target: B5; test: out-competition dissociation kinetics (fluorescence); pre-formed equimolar complex of MCL-1 and TAMRA-labelled BH3 peptide diluted into 50–400 molar excess of un-labelled PUMABH3; TAMRA fluorescence intensity or polarisation; manual mixing or stopped-flow; buffer without detergent
[3] = biological target: B5; test: fluorescence polarisation; kinetics; BAK and MCL-1 pre-incubated in PS20 (20xCMC), then dye-labelled BH3 peptide added; change in TAMRA fluorescence polarisation fitted to a single exponential
[4] = biological target: B5; test: SEC; proteins pre-incubated in detergent (PS20, C12E8 and others, at the multiples of CMC given in the legends); Superdex 200 Increase 10/300 GL, 50 mM sodium phosphate pH 7.0
[5] = biological target: T1, BAX (UniProt:Q07812, residues 1–171, C62S, C126S) (human, UniProt Q07812 1-171, C62S | C126S); test: native MS; 5 μM total protein (equimolar), 100 mM ammonium acetate pH 7.0, PS20 5xCMC, at least 3 h at room temperature
T1 construct: human BAX, residues 1-171, without the C-terminal transmembrane helix; cysteines mutated to serines; Theoretical mass 18933.65 Da; source: E. coli C41(DE3), purified (chitin resin, intein self-cleavage with DTT, SEC); not shown: intein, C-terminal, cleaved
T1 sequence (Q07812 1-171 C62S/C126S, one chain of several): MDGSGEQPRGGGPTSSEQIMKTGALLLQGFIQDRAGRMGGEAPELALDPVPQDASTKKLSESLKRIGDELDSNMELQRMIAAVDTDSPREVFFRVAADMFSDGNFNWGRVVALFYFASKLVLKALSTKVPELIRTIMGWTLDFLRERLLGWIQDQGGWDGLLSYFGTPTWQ

[6] = biological target: B2; test: SEC; proteins pre-incubated in detergent (PS20, C12E8 and others, at the multiples of CMC given in the legends); Superdex 200 Increase 10/300 GL, 50 mM sodium phosphate pH 7.0

Binder: B1
Kd [1]: 0.08 nM
koff [2]: 0.00056 s⁻¹

Binder: B2
half-life (displacement of BAK:MCL-1 hetero-dimers by PUMA) [3]: ~17 min

Binder: B3
binding result [4]: binds

Binder: B4
binding result [2]: binds

Binder: B5
binding result [5]: binds
binding result [6]: binds
